Assay results taken from the supplement of paper PMC10567573.

B1: ZNF263 (parent)
chain: VPGTQVGQGGKLWDPSVQSCKEGL

Variants of: B1
Assay: protein stability index of a GFP-peptide fusion (GPS, HEK-293T) (PSI 1-6); higher = more stable
Details: c terminus: a fixed tail appended
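Also: lentivirally expressed fusions sorted by FACS into six bins by GFP to DsRed ratio, PSI derived from sequencing read proportions per bin multiplied by bin number.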

| Variant | protein stability index |
| --- | --- |
| VPGTQVGQGKKLWDPSVQSCKEGL [G10K] | 4.5 |
| VPGTQVGQGFKLWDPSVQSCKEGL [G10F] | 2.93 |
| VPGTQVGQGPKLWDPSVQSCKEGL [G10P] | 4.47 |
| VPGTQVGQGHKLWDPSVQSCKEGL [G10H] | 4.02 |
| VPGTQVGQGRKLWDPSVQSCKEGL [G10R] | 4.96 |
| VPGTQVGQGNKLWDPSVQSCKEGL [G10N] | 4.19 |
| VPGTQVGQGAKLWDPSVQSCKEGL [G10A] | 4.33 |
| VPGTQVGQGLKLWDPSVQSCKEGL [G10L] | 3.62 |
| VPGTQVGQGCKLWDPSVQSCKEGL [G10C] | 3.24 |
| VPGTQVGQGMKLWDPSVQSCKEGL [G10M] | 4.28 |
| VPGTQVGQGTKLWDPSVQSCKEGL [G10T] | 4.31 |
| VPGTQVGQGVKLWDPSVQSCKEGL [G10V] | 3.71 |
| VPGTQVGQGYKLWDPSVQSCKEGL [G10Y] | 3.55 |
| VPGTQVGQGSKLWDPSVQSCKEGL [G10S] | 4.48 |
| VPGTQVGQGIKLWDPSVQSCKEGL [G10I] | 3.53 |
| VPGTQVGQGWKLWDPSVQSCKEGL [G10W] | 2.45 |
| VPGTQVGQGEKLWDPSVQSCKEGL [G10E] | 4.01 |
| VPGTQVGQGQKLWDPSVQSCKEGL [G10Q] | 4.38 |
| VPGTQVGQGDKLWDPSVQSCKEGL [G10D] | 4.54 |
| VPGTQVGQGGKLWDPSYQSCKEGL [V17Y] | 4.1 |
| VPGTQVGQGGKLWDPSQQSCKEGL [V17Q] | 3.8 |
| VPGTQVGQGGKLWDPSLQSCKEGL [V17L] | 4.08 |
| VPGTQVGQGGKLWDPSFQSCKEGL [V17F] | 3.38 |
| VPGTQVGQGGKLWDPSAQSCKEGL [V17A] | 4.38 |

| Variant | protein stability index |
| --- | --- |
| VPGTQVGQGGKLWDPSPQSCKEGL [V17P] | 4.24 |
| VPGTQVGQGGKLWDPSGQSCKEGL [V17G] | 3.99 |
| VPGTQVGQGGKLWDPSNQSCKEGL [V17N] | 4.07 |
| VPGTQVGQGGKLWDPSDQSCKEGL [V17D] | 4.92 |
| VPGTQVGQGGKLWDPSEQSCKEGL [V17E] | 5.16 |
| VPGTQVGQGGKLWDPSKQSCKEGL [V17K] | 4.33 |
| VPGTQVGQGGKLWDPSHQSCKEGL [V17H] | 4.1 |
| VPGTQVGQGGKLWDPSCQSCKEGL [V17C] | 4.15 |
| VPGTQVGQGGKLWDPSIQSCKEGL [V17I] | 3.89 |
| VPGTQVGQGGKLWDPSTQSCKEGL [V17T] | 3.74 |
| VPGTQVGQGGKLWDPSMQSCKEGL [V17M] | 4.06 |
| VPGTQVGQGGKLWDPSSQSCKEGL [V17S] | 4.92 |
| VPGTQVGQGGKLWDPSRQSCKEGL [V17R] | 4.23 |
| VPGTQVGQEGKLWDPSVQSCKEGL [G9E] | 4.61 |
| VPGTQVGQYGKLWDPSVQSCKEGL [G9Y] | 3.59 |
| VPGTQVGQCGKLWDPSVQSCKEGL [G9C] | 3.73 |
| VPGTQVGQTGKLWDPSVQSCKEGL [G9T] | 4.25 |
| VPGTQVGQAGKLWDPSVQSCKEGL [G9A] | 4.03 |
| VPGTQVGQIGKLWDPSVQSCKEGL [G9I] | 3.8 |
| VPGTQVGQKGKLWDPSVQSCKEGL [G9K] | 4.25 |
| VPGTQVGQSGKLWDPSVQSCKEGL [G9S] | 4.23 |
| VPGTQVGQQGKLWDPSVQSCKEGL [G9Q] | 4.22 |
| VPGTQVGQRGKLWDPSVQSCKEGL [G9R] | 3.67 |
| VPGTQVGQMGKLWDPSVQSCKEGL [G9M] | 3.42 |

| Variant | protein stability index |
| --- | --- |
| VPGTQVGQPGKLWDPSVQSCKEGL [G9P] | 3.25 |
| VPGTQVGQHGKLWDPSVQSCKEGL [G9H] | 4.34 |
| VPGTQVGQNGKLWDPSVQSCKEGL [G9N] | 3.47 |
| VPGTQVGQWGKLWDPSVQSCKEGL [G9W] | 3.33 |
| VPGTQVGQVGKLWDPSVQSCKEGL [G9V] | 3.67 |
| VPGTQVGQLGKLWDPSVQSCKEGL [G9L] | 4.19 |
| VPGTQVGQDGKLWDPSVQSCKEGL [G9D] | 4.55 |
| VPGTQVGQFGKLWDPSVQSCKEGL [G9F] | 3.87 |
| VPGTQVGQGGKLWDWSVQSCKEGL [P15W] | 3.17 |
| VPGTQVGQGGKLWDCSVQSCKEGL [P15C] | 3.75 |
| VPGTQVGQGGKLWDFSVQSCKEGL [P15F] | 2.86 |
| VPGTQVGQGGKLWDYSVQSCKEGL [P15Y] | 3.16 |
| VPGTQVGQGGKLWDLSVQSCKEGL [P15L] | 4.8 |
| VPGTQVGQGGKLWDGSVQSCKEGL [P15G] | 4.35 |
| VPGTQVGQGGKLWDTSVQSCKEGL [P15T] | 4.25 |
| VPGTQVGQGGKLWDKSVQSCKEGL [P15K] | 4.23 |
| VPGTQVGQGGKLWDDSVQSCKEGL [P15D] | 4.29 |
| VPGTQVGQGGKLWDASVQSCKEGL [P15A] | 4.22 |
| VPGTQVGQGGKLWDRSVQSCKEGL [P15R] | 4.16 |
| VPGTQVGQGGKLWDSSVQSCKEGL [P15S] | 4.03 |
| VPGTQVGQGGKLWDVSVQSCKEGL [P15V] | 3.63 |
| VPGTQVGQGGKLWDESVQSCKEGL [P15E] | 4.94 |
| VPGTQVGQGGKLWDMSVQSCKEGL [P15M] | 3.54 |
| VPGTQVGQGGKLWDQSVQSCKEGL [P15Q] | 4.25 |

| Variant | protein stability index |
| --- | --- |
| VPGTQVGQGGKLWDISVQSCKEGL [P15I] | 3.3 |
| VPGTQVGQGGKLWDHSVQSCKEGL [P15H] | 4.01 |
| VPGTQVGQGGKLWDNSVQSCKEGL [P15N] | 4.13 |
| VPGTQVGQGGWLWDPSVQSCKEGL [K11W] | 3.72 |
| VPGTQVGQGGRLWDPSVQSCKEGL [K11R] | 4.46 |
| VPGTQVGQGGELWDPSVQSCKEGL [K11E] | 4.22 |
| VPGTQVGQGGYLWDPSVQSCKEGL [K11Y] | 4.12 |
| VPGTQVGQGGCLWDPSVQSCKEGL [K11C] | 4.57 |
| VPGTQVGQGGLLWDPSVQSCKEGL [K11L] | 4.13 |
| VPGTQVGQGGMLWDPSVQSCKEGL [K11M] | 4.56 |
| VPGTQVGQGGTLWDPSVQSCKEGL [K11T] | 4.31 |
| VPGTQVGQGGALWDPSVQSCKEGL [K11A] | 4 |
| VPGTQVGQGGPLWDPSVQSCKEGL [K11P] | 3.65 |
| VPGTQVGQGGSLWDPSVQSCKEGL [K11S] | 4.35 |
| VPGTQVGQGGILWDPSVQSCKEGL [K11I] | 4.26 |
| VPGTQVGQGGDLWDPSVQSCKEGL [K11D] | 4.63 |
| VPGTQVGQGGGLWDPSVQSCKEGL [K11G] | 4.44 |
| VPGTQVGQGGNLWDPSVQSCKEGL [K11N] | 4.54 |
| VPGTQVGQGGVLWDPSVQSCKEGL [K11V] | 3.61 |
| VPGTQVGQGGHLWDPSVQSCKEGL [K11H] | 4.03 |
| VPGTQVGQGGQLWDPSVQSCKEGL [K11Q] | 4.54 |
| VPGTQVGQGGFLWDPSVQSCKEGL [K11F] | 3.9 |
